Measured values from the supplement of paper PMC9170038.

Test system: MS2 coat protein
Assay: apparent KD of MS2 coat protein; designed switch direction (-1 OFF switch, 1 ON switch): 1; higher = weaker reporter binding
In short: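 The buffer was Tris-HCl pH 7.5 with KCl, MgCl2, BSA, DTT, tRNA and Tween-20. In it, SNAP-549-labelled MS2 coat protein was titrated in doubling steps from 0.7 or 1.5 nM to 3 µM over chip-bound RNA switches transcribed by stalled E. coli RNA polymerase on Illumina chips. Apparent KD is the per-design median over clusters of curve fits to normalised fluorescence.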

[1] = input ligand: microRNA oligo, concentration not stated
[2] = Eterna round: R95, input ligand: FMN 200 uM
[3] = Eterna round: R95, input ligand: microRNA oligo, concentration not stated
[4] = Eterna round: R95, input ligand: none

Sequence | apparent KD of MS2 coat protein (input ligand: FMN 200 uM) [µM] | apparent KD of MS2 coat protein [1] [µM] | apparent KD of MS2 coat protein (input ligand: none) [µM] | apparent KD of MS2 coat protein [2] [µM] | apparent KD of MS2 coat protein [3] [µM] | apparent KD of MS2 coat protein [4] [µM]
AUUUCUAGCACAGGAUAUCAUGCGAAAAUUGCGUGAGAAGGGUGGACGCUGUCAUUCACGGAAGACAUGAGGAUCACCCAUGUC [SameState NG1 #76] (Eterna round: R96, puzzle: Same State NG 1) | 0.048 | 0.0534 | 0.102 | – | – | –
AUUUUUAAUGCAGGAUAUGAUUAACAUGAGGAUCACCCAUGUGGUGUUGUGAGUAAGGAGAGUGAUCAGAAGGGCAGUUUUUUU [JMF's solution 79] (Eterna round: R96, puzzle: Same State NG 2) | 0.543 | 0.315 | 0.499 | – | – | –
AUUUUUAAUGCAGGAUAUGAUUAACAUGAGGAUCACCCAUGUGGUGUUGUGAGUAAGGAGAGUGAUCAGAAGGGCAUAUUUUUU [JMF's solution 80] (Eterna round: R96, puzzle: Same State NG 2) | 1.17 | 0.443 | 0.863 | – | – | –
AUUUUUAAUGCAGGAUAUGAUUAACAUGAGGAUCACCCAUGUGGUGUUGUGAGUAAGGAGAGUGAUCAGAAGGGCAUUUUGUUU [JMF's solution 83] (Eterna round: R96, puzzle: Same State NG 2) | 0.747 | 0.4 | 0.687 | – | – | –
AUUUUUCAUGCAGGAUAUGAUUAACAUGAGGAUCACCCAUGUGGUGUUGUGAGUAAGGAGAGUGAUCAGAAGGGCAUUUUUUUU [JMF's solution 94] (Eterna round: R96, puzzle: Same State NG 2) | 0.837 | 0.342 | 0.503 | – | – | –
CAAGCUUGGGUCGUCCCGCUCGUCUACAAACAUGAGGAUCACCCAUGUAAAAUCUAAAAUUCAAAUCUAUCUCUAAA [Getienre] (puzzle: Sensor for hsa-mir-208a) | – | – | – | 0.515 | 0.0209 | 0.563
CAAGCUUGGGUCGUCCCGCUCGUCUACAAACAUGAGGAUCACCCAUGUAUGCUCUUCGCAUCAAUUCUAUCUCUUGG [Quxeteor] (puzzle: Sensor for hsa-mir-208a) | – | – | – | 0.0515 | 0.0513 | 0.0541
CAGCACUGUCGAGAGGAUAUGCGGUGAUGGACAUGAGGAUCACCCAUGUUAGCGACAGCAUCACGGCAGAAGGCUCUACUGCUGC [Soteed Omei mod 32] (puzzle: Same State 2) | – | – | – | – | 0.0123 | –
CAGUGCUGUCGAGAGGAUAUGCGGUGAUGGACAUGAGGAUCACCCAUGUUAGCGACAGCAUCACGGCAGAAGGCUCUACCCACUG [Soteed Omei mod 45] (puzzle: Same State 2) | – | – | – | – | 0.0167 | –
CCAAUGUACAAUUUAGAUCUACAUGAGGAUCACCCAUGUACAGAGGAUAUCAGCUCGUGUAGAGCUGAGAAGGCUGAAUUAAUU [SSNG3/3-A4] (Eterna round: R96, puzzle: Same State NG 3) | 0.117 | 0.117 | 0.179 | – | – | –
CCAGCUACUCACAUGAGGAUCACCCAUGUCUAGGAUAUAGUAGAGGAUAUUGGCGGAUGGAAGACCGAGAAGGCUACCUCCUGA [Eternabot solution 49] (Eterna round: R96, puzzle: Same State NG 3) | 0.0179 | 0.0144 | 0.0183 | – | – | –
CCAGGACAUGAGGAUCACCCAUGUGCUUAAUGUGGAGAAUCUCAGGAUAUCAUGAGGAUUACCCAUGAGAAGGGAGAUCCGAGG (Eterna round: R96, puzzle: Same State NG 3) | 0.437 | 0.3 | 0.483 | – | – | –
CCAUAACGGUGAGGAUAUCGUUGCGAUAAGUGACGAGAAGGCAUUCAUGUGAAAUAAACAUACAUGAGGAUCACCCAUGUUGUA [Omei SS(NG)1 Bv1] (Eterna round: R96, puzzle: Same State NG 1) | 0.0237 | 0.0572 | 0.0577 | – | – | –
CCGAUGAUAGGACAGGAUAUGACUGUCGUCACAUGAGGAUCACCCAUGUCCCGGCAAUGCCACCGUUAGAAGGGUCCCAUCUCGG [Uslainarin] (Eterna round: R96, puzzle: Same State 2) | 0.0182 | 0.0186 | 0.0238 | – | – | –
CCGAUGAUAGGACAGGAUAUGACUGUCGUCACAUGAGGAUCACCCAUGUCCCGGCAAUGCCACCGUUAGAAGGGUCCCAUCUCGG [Uslainarin] (puzzle: Same State 2) | – | – | – | – | 0.0156 | –
CCGCCGGGAACCCGGCGAAAACAUGAGGAUCACCCAUGUACACAGGAUAUCGUGACAUUAACAAACGAGAAGGGUGGCCGAGAC [Lelateen] (Eterna round: R96, puzzle: Same State NG 3) | 0.453 | 0.189 | 0.182 | – | – | –

Sequence | apparent KD of MS2 coat protein (input ligand: FMN 200 uM) [µM] | apparent KD of MS2 coat protein [1] [µM] | apparent KD of MS2 coat protein (input ligand: none) [µM] | apparent KD of MS2 coat protein [2] [µM] | apparent KD of MS2 coat protein [3] [µM] | apparent KD of MS2 coat protein [4] [µM]
CCGGAUAAUGGAGGAUAUGGAGCCUUAUUGGCUCCAGAAGGCUAACAUGAGGAUCACCCAUGUAGUCCGGCGGUCAAUAGACCG [Eli NG1ss - 67] (Eterna round: R96, puzzle: Same State NG 1) | 0.0109 | 0.0115 | 0.0216 | – | – | –
CCGGCAAGUAUAGGAUAUCCCGCAACAGAAACGGGAGAAGGGUGCCAAACAUGAGGAUCACCCAUGUACACCGGAAAUAAAUAA [Lazaorra] (Eterna round: R96, puzzle: Same State NG 1) | 0.0549 | 0.0564 | 0.0469 | – | – | –
CCGUAAUAUGGAGGAUAUGGAGCCUUAUUGGCUCCAGAAGGUCAUAACACAUGAGGAUCACCCAUGUCGGCGGUCAAUAGACCG [Eli NG1ss - 76] (Eterna round: R96, puzzle: Same State NG 1) | 0.0194 | 0.0749 | 0.0683 | – | – | –
CCGUAGAUGGAAGGAUAUGGAGCCUUAUUGGCUCCAGAAGGUUCAAUAACAUGAGGAUCACCCAUGUCGGCGGUCAAUAGACCG [Eli NG1ss - 80] (Eterna round: R96, puzzle: Same State NG 1) | 0.0205 | 0.0277 | 0.0449 | – | – | –
CCUGACAUGAGGAUCACCCAUGUAGGGAAACAAUGACAUAUGGAGGAUAUACACCCGAAAGGCGCGUAGAAGGUCACAUGUCCA [Eternabot solution 5] (Eterna round: R96, puzzle: Same State NG 3) | 0.0107 | 0.0108 | 0.013 | – | – | –
CGAAGUCGUAGAGGAUAUGGGUGGCCGGAGUCAACAUGAGGAUCACCCAUGUGCUAAUAUGAGAUCCAGAAGGCUGCGAACGGG [Eternabot solution 16] (Eterna round: R96, puzzle: Same State NG 2) | 0.0571 | 0.0314 | 0.43 | – | – | –
CGCCGACAUGAGGAUCACCCAUGUGAGCGACUCACAGGAUAUACGCGAUAACAAAGUCGCGUAGAAGGGUGCUCCU [Iscezaso] (puzzle: Same State 1) | – | – | – | 0.0234 | 0.0192 | 0.0233
CGCGAACAGGCAGGAUAUAUAGAGCCAAAUAUUGUAGAAGGGCCACGUGCGGGAAGAGAACACAUGAGGAUCACCCAUGUUCGA [Eternabot solution 5] (Eterna round: R96, puzzle: Same State NG 1) | 0.0274 | 0.0279 | 0.0307 | – | – | –
CGGCGCUGUCGAGAGGAUAUGCGGUGAUGGACAUGAGGAUCACCCAUGUUAGCGAUAGCAUCACGGUAGAAGGCUCUUACGCCUG [Soteed Omei mod 23] (Eterna round: R96, puzzle: Same State 2) | 0.217 | 0.257 | 0.717 | – | – | –
CGGCGCUGUCGAGAGGAUAUGCGGUGAUGGACAUGAGGAUCACCCAUGUUAGCGAUAGCAUCACGGUAGAAGGCUCUUACGCCUG [Soteed Omei mod 23] (puzzle: Same State 2) | – | – | – | 0.0915 | 0.13 | 0.205
CGGCGCUGUUGAGAGGAUAUGCGGUGAUGGACAUGAGGAUCACCCAUGUUAGCGAUAGCAUUACGGUAGAAGGCUCUACAGCUGC [Soteed Omei mod 6] (puzzle: Same State 2) | – | – | – | – | 0.0189 | –
CGGCUCCGUGGAGGAUAUGGGCCUGCCCGGGAUAACGGGCCUAACACAUGAGGAUCACCCAUGUCCCAGAAGGCCGCUGGAGCC [Enineseson] (Eterna round: R96, puzzle: Same State NG 2) | 0.014 | 0.0391 | 0.0544 | – | – | –
CGUAGGCCUCUCAACAUGAGGAUCACCCAUGUACGUGAAACGUAGGAUAUCACACAACUAAUGUGUGAGAAGGGCGCGCCGGAG [Eternabot solution 25] (Eterna round: R96, puzzle: Same State NG 3) | – | 0.0914 | – | – | – | –
CGUCCAGCCUGAGCUGGACAAAAGCAUGUACAUGAGGAUCACCCAUGUUCAUGUACAAGCUUUUUGCUCGUCUUAAC [salish99_208a_r3_039] (puzzle: Sensor for hsa-mir-208a) | – | – | – | 0.66 | 0.0182 | 0.616
CGUCCAGCCUGAGCUGGACAAAAGCAUGUACAUGAGGAUCACCCAUGUUCAUGUACAAGCUUUUUGCUCGUCUUAGC [salish99_208a_r3_075] (Eterna round: R96, puzzle: Sensor for hsa-mir-208a) | 0.598 | 0.0138 | 0.616 | – | – | –
CGUCCAGCCUGAGCUGGACAAAAGCAUGUACAUGAGGAUCACCCAUGUUCAUGUACAAGCUUUUUGCUCGUCUUAGC [salish99_208a_r3_075] (puzzle: Sensor for hsa-mir-208a) | – | – | – | 0.73 | 0.0143 | 0.86
